IC50 for TGF-β1 (neutralization, Mv1Lu luciferase reporter cells), IC50 for TGF-β3 (neutralization, Mv1Lu luciferase reporter cells) and fold potency against TβRII-ED (neutralization, Mv1Lu luciferase reporter cells) data for two molecules are collected here from patent US20110236309A1.

The target in experiment [1] is TGF-β1 (Homo sapiens (Human)) (UniProt P01137).
Experiment [2] addresses T1, TGF-β3 (Homo sapiens (Human)) (UniProt P10600).
T1 sequence: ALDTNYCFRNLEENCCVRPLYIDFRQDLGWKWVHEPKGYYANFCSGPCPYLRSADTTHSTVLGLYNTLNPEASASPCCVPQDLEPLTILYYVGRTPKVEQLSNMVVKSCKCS

In experiment [3] the target is TGF-β1 (Homo sapiens (Human)) (UniProt P01137). The source holds these as a separate data set.
For experiment [4], the target named is T1, TGF-β3 (Homo sapiens (Human)). The source holds these as a separate data set.

Chain of TGF-β1 (Homo sapiens (Human)) (P01137 279-390 limits assumed): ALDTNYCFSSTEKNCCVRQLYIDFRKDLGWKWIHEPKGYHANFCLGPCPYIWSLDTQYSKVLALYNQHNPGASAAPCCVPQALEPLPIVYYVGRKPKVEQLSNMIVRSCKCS

B1: (TβRII)^2 homo-bivalent single-chain recombinant trap (designed binder, from a related filing)
chain: TIPPEQKLISEEDLLHVQKSVNNDMIVTDNNGAVKFPQLCKFCDVRFSTCDNQKSCMSNCSITSICEKPQEVCVAVWRKNDENITLETVCHDPKLPYHDFILEDAASPKCIMKEKKKPGETFFMCSCSSDECNDNIIFSEEYNTSNPDGGRHVQKSVNNDMIVTDNNGAVKFPQLCKFCDVRFSTCDNQKSCMSNCSITSICEKPQEVCVAVWRKNDENITLETVCHDPKLPYHDFILEDAASPKCIMKEKKKPGETFFMCSCSSDECNDNIIFSEEYNTSNPDHHHHHH
The molecule B1 gave an IC50 for TGF-β1 (neutralization, Mv1Lu luciferase reporter cells) in experiment [1] of 1360 pM. Besides, the IC50 for TGF-β3 (neutralization, Mv1Lu luciferase reporter cells) in experiment [2] was found to be 336 pM. The fold potency against TβRII-ED (neutralization, Mv1Lu luciferase reporter cells) in experiment [3] and in experiment [4] was 100 fold throughout.

B2: (TβRIIb)^2 homo-bivalent single-chain recombinant trap (designed binder, from a related filing)
chain: APMAEGGGQNHHHHHHHHGGSFNPRIPPHVQKSVNNDMIVTDNNGAVKFPQLCKFCDVRFSTCDNQKSCMSNCSITSICEKPQEVCVAVWRKNDENITLETVCHDPKLPYHDFILEDAASPKCIMKEKKKPGETFFMCSCSSDECNDNIIFSEEYNTSNPDIPPHVQKSDVEMEAQKDEIICPSCNRTAHPLRHINNDMIVTDNNGAVKFPQLCKFCDVRFSTCDNQKSCMSNCSITSICEKPQEVCVAVWRKNDENITLETVCHDPKLPYHDFILEDAASPKCIMKEKKKPGETFFMCSCSSDECNDNIIFSEEYNTSNPD
On to B2, for which the IC50 for TGF-β1 (neutralization, Mv1Lu luciferase reporter cells) in experiment [1] is 98 pM. In addition, the IC50 for TGF-β3 (neutralization, Mv1Lu luciferase reporter cells) in experiment [2] was determined as 45 pM. The fold potency against TβRII-ED (neutralization, Mv1Lu luciferase reporter cells) in experiment [3] and in experiment [4] was 1000 fold in each case.
